Measurements reported in patent US20180057604A1 (Genentech, published 2018).
Like-named read-outs stand apart in the source and are kept apart here.

Columns and labels:
human BACE1 ECD [1] = biological target: T1, human BACE1 ECD; experiment: Octet, pH 7.5;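 note: antibodies captured on anti-human capture biosensor tips, dissociation followed in PBS with BSA buffer, kinetics fitted with a one-to-one binding model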
T1 construct: analyte of the Octet assay (200 nM) and enzyme of the first short substrate assay; also called human BACE1 extracellular domain
T1 sequence (single chain, as listed by the source limits assumed): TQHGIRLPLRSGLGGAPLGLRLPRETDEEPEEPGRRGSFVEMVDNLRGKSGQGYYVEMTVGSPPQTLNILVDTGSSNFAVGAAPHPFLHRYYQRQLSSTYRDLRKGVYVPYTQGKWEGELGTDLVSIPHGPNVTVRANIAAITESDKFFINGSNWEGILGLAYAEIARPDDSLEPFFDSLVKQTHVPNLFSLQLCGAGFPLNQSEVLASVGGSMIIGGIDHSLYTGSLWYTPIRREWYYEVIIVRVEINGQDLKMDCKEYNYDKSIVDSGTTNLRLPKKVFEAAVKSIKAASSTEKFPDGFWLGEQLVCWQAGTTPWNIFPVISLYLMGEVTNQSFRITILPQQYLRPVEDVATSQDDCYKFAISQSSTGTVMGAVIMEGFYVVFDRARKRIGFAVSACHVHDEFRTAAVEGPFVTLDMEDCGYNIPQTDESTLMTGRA

murine BACE1 ECD [2] = biological target: T2, murine BACE1 ECD; experiment: Octet, pH 7.5;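 note: antibodies captured on anti-human capture biosensor tips, dissociation followed in PBS with BSA buffer, kinetics fitted with a one-to-one binding model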
T2 construct: analyte of the Octet assay (200 nM) and enzyme of the first short substrate assay
T2 sequence (single chain, as listed by the source limits assumed): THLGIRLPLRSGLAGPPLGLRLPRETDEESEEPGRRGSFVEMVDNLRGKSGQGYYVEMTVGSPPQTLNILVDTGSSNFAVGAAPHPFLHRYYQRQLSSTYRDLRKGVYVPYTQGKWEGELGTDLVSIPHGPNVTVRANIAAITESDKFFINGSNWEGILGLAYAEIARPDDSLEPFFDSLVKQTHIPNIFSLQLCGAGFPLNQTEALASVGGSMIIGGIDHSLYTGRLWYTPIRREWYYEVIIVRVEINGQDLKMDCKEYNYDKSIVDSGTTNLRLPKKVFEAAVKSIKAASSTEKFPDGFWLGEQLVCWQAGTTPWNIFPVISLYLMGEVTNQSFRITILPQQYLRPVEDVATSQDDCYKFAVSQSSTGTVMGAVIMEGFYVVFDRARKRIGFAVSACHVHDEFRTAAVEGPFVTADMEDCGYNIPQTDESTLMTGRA

human BACE1 ECD [3] = biological target: T1, human BACE1 ECD; experiment: Octet, pH 5.0
murine BACE1 ECD [4] = biological target: T2, murine BACE1 ECD; experiment: Octet, pH 5.0
[5] = biological target: BACE1 (HTRF long substrate and FRET short substrate assays of Example 9D); experiment: cell-based or functional assay
[6] = biological target: T3, BACE1 in primary mouse cortical neurons (mouse, UniProt P56818 46-501); experiment: cell-based or functional assay
T3 sequence (P56818 46-501): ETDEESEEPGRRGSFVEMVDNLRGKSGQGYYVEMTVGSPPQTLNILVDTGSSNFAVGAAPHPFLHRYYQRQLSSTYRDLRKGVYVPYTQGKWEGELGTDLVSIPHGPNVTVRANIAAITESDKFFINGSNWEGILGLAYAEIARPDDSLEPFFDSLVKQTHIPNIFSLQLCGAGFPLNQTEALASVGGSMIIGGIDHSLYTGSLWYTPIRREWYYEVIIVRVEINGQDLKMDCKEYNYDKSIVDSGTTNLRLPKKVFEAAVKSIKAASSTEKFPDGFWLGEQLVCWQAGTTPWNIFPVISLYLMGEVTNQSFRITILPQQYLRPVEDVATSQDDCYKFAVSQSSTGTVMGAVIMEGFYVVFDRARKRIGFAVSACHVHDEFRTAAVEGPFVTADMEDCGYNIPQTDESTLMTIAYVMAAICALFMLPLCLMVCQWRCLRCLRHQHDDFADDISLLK

human BACE1 ECD [7] = biological target: T1, human BACE1 ECD; experiment: cell-based or functional assay
murine BACE1 ECD [8] = biological target: T2, murine BACE1 ECD; experiment: cell-based or functional assay
[9] = biological target: T4, human BACE1 (R&D Systems) (human, UniProt P56817); experiment: SPR (Biacore)
T4 construct: recombinant, commercial (R&D Systems)
T4 sequence (P56817 22-457 limits assumed): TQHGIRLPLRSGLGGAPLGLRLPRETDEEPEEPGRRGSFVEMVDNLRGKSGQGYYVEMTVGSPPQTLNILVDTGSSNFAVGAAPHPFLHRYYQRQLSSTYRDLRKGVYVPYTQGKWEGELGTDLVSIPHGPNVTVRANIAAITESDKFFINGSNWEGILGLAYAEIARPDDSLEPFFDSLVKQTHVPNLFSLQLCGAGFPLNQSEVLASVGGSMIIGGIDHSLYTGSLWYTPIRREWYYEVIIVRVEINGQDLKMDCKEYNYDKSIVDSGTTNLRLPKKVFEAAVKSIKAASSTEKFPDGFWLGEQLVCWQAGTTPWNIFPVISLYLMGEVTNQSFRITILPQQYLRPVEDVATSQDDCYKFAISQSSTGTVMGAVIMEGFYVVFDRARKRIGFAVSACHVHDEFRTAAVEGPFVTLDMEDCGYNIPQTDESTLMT

[10] = biological target: T3, BACE1 in primary mouse cortical neurons; experiment: cell-based or functional assay; remark: listed apart in the source
human BACE1 ECD [11] = biological target: T1, human BACE1 ECD; experiment: Octet, pH 5.0; remark: listed apart in the source
murine BACE1 ECD [12] = biological target: T2, murine BACE1 ECD; experiment: Octet, pH 5.0; remark: listed apart in the source
human BACE1 ECD [13] = biological target: T1, human BACE1 ECD; experiment: Octet, pH 7.5; remark: listed apart in the source;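 note: antibodies captured on anti-human capture biosensor tips, dissociation followed in PBS with BSA buffer, kinetics fitted with a one-to-one binding model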
murine BACE1 ECD [14] = biological target: T2, murine BACE1 ECD; experiment: Octet, pH 7.5; remark: listed apart in the source;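 note: antibodies captured on anti-human capture biosensor tips, dissociation followed in PBS with BSA buffer, kinetics fitted with a one-to-one binding model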
[15] = biological target: T5, human TfR extracellular domain with N-terminal His tag (human, UniProt P02786 89-760); experiment: SPR, IgG;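 note: His-tagged TfR captured via immobilized anti-His antibody on a CM5 chip, antibody injected in 3-fold dilution series by single cycle kinetics, 1:1 Langmuir or steady-state fit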
T5 construct: Biotinylated in some assays; also called huTfR; HuTfR
T5 sequence (P02786 89-760 G142S): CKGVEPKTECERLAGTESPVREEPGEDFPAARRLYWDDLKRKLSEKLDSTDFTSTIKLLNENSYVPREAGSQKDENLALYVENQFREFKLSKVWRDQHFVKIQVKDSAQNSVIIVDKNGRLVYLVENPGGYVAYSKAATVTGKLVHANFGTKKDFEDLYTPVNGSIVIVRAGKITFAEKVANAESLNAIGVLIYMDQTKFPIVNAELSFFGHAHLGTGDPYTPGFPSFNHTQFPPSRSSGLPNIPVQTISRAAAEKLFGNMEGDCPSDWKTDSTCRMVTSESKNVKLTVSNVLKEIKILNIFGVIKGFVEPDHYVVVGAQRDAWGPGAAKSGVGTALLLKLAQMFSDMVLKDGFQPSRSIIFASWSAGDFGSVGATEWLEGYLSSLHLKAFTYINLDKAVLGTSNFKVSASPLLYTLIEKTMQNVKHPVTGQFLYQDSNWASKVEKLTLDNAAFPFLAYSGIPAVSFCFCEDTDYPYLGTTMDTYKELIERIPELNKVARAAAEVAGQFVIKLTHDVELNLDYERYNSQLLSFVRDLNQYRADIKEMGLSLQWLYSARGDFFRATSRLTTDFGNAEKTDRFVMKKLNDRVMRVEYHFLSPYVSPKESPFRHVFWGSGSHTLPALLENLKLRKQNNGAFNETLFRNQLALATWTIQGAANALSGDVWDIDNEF

Binder	Kd (human BACE1 ECD [1]) [nM]	Kd (murine BACE1 ECD [2]) [nM]	Kd (human BACE1 ECD [3]) [nM]	Kd (murine BACE1 ECD [4]) [nM]	EC50, HTRF long substrate [5] [nM]	IC50, Abeta x-40 in mouse cortical neurons [6] [nM]	maximal % inhibition of Abeta x-40 [6] [%]	% inhibition of BACE1 activity, short FRET substrate (human BACE1 ECD [7]) [%]	% inhibition of BACE1 activity, short FRET substrate (murine BACE1 ECD [8]) [%]	Kd [9] [nM]	EC50, FRET short substrate [5] [nM]	IC50, Abeta x-40 in mouse cortical neurons [10] [nM]	maximal % inhibition of Abeta x-40 [10] [%]	Kd (human BACE1 ECD [11]) [nM]	Kd (murine BACE1 ECD [12]) [nM]	Kd (human BACE1 ECD [13]) [nM]	Kd (murine BACE1 ECD [14]) [nM]	Kd [15] [nM]
5536 (antibody, V domains shown, anti-BACE1 IgG) VH: QVQLVQSGAEVKKPGSSVKVSCKASGGTFSSYAISWVRQAPGQGLEWMGSIIPIFGTANYAQKFQGRVTITADESTSTAYMELSSLRSEDTAVYYCARSGGTKYGMLDVWGQGTMVTVSS VL: EIVMTQSPATLSVSPGERATLSCRASQSVGSNLAWYQQKPGQAPRLLIYGASTRATGIPARFSGSGSGTEFTLTISSLQSEDFAVYYCQQSYLWPPRTFGGGTKVEIK	15	22	17	6.8	0.578	42.4	84	32	30									
5539 (antibody, V domains shown, anti-BACE1 IgG) VH: not shown VL: DIQMTQSPSSLSASVGDRVTITCRASQSISSYLNWYQQKPGKAPKLLIYAASSLQSGVPSRFSGSGSGTDFTLTISSLQPEDFATYYCQQPLSHPRTFGGGTKVEIK	79	110			0.694	17.6	45	42	23	30.5								
5878 (antibody, V domains shown, anti-BACE1 IgG) VH: EVQLLESGGGLVQPGGSLRLSCAASGFTFSSYAMSWVRQAPGKGLEWVSAISGSGISTPYADSVKGRFTISRDNSKNTLYLQMNSLRAEDTAVYYCAKGAGHGSYVKGWFDPWGQGTLVTVSS VL: EIVLTQSPATLSLSPGERATLSCRASQSVSSYLAWYQQKPGQAPRLLIYDASNRATGIPARFSGSGSGTDFTLTISSLEPEDFAVYYCQQSVNFPFTFGGGTKVEIK	2.5	2.7	11	14	164			99	98	36	24.3							
5880 (antibody, V domains shown, anti-BACE1 IgG) VH: EVQLLESGGGLVQPGGSLRLSCAASGFTFGSYAMTWVRQAPGKGLEWVSAISGSGISTPYADSVKGRFTISRDNSKNTLYLQMNSLRAEDTAVYYCAKGAGHGSYVKGWFDPWGQGTLVTVSS VL: EIVLTQSPATLSLSPGERATLSCRASQSVSSYLAWYQQKPGQAPRLLIYDASNRATGIPARFSGSGSGTDFTLTISSLEPEDFAVYYCQQSVNFPFTFGGGTKVEIK	1	1.2	4.5	6.1	171			99	97	65.5	7.88							
5747 (antibody, V domains shown, anti-BACE1 IgG) VH: QLQLQESGPGLVKPSETLSLTCTVSGGSISSSSYYWGWIRQPPGKGLEWIGNIYYSGSTYYNPSLKSRVTISVDTSKNQFSLKLSSVTAADTAVYYCARLGHGYSYFDLWGRGTLVTVSS VL: EIVLTQSPATLSLSPGERATLSCRASQSVSSYLAWYQQKPGQAPRLLIYDASNRATGIPARFSGSGSGTDFTLTISSLEPEDFAVYYCQQVYLWPPRTFGGGTKVEIK	3.3	2.2	3	3.1		25.6	74											
5931 (antibody, V domains shown, anti-BACE1 IgG) VH: QLQLQESGPGLVKPSETLSLTCTVSGGSISWSSYYWSWIRQPPGKGLEWIGSIYRSGRTYYNPSLKGRVTISVDTSKNQFSLKLSSVTAADTAVYYCARVGHGINYFDLWGRGTLVTVSS VL: EIVLTQSPATLSLSPGERATLSCRASQSVSSYLAWYQQKPGQAPRLLIYDASKRATGIPARFSGSGSGTDFTLTISSLEPEDFAVYYCQQVYTWPPRTFGGGTKVEIK												0.91	69	< 0.22	< 0.28	< 0.22	< 0.23	
5932 (antibody, V domains shown, anti-BACE1 IgG) VH: QLQLQESGPGLVKPSETLSLTCTVSGGSISRGSYYWGWIRQPPGKGLEWIGMIYYSGSTWYNPSLKSRVTISVDTSKNQFSLKLSSVTAADTAVYYCARVGHGISYFDLWGRGTLVTVSS VL: EIVLTQSPATLSLSPGERATLSCRASQSVSSYLAWYQQKPGQAPRLLIYDASKRATGIPARFSGSGSGTDFTLTISSLEPEDFAVYYCQQVYTWPPRTFGGGTKVEIK												6.26	57	< 0.23	< 0.3	0.31	< 0.3	
5933 (antibody, V domains shown, anti-BACE1 IgG) VH: QLQLQESGPGLVKPSETLSLTCTVSGGSISRGSYYWGWIRQPPGKGLEWIGMIYYSGSTWYNPSLKSRVTISVDTSKNQFSLKLSSVTAADTAVYYCARVGHGVSYFDLWGRGTLVTVSS VL: EIVLTQSPATLSLSPGERATLSCRASQSVSSYLAWYQQKPGQAPRLLIYGASKRATGIPARFSGSGSGTDFTLTISSLEPEDFAVYYCQQVYTWPPRTFGGGTKVEIK												3.6	67	< 0.2	< 0.24	0.32	< 0.24	
5982 (antibody, V domains shown, anti-BACE1 IgG) VH: QLQLQESGPGLVKPSETLSLTCTVSGGSISSSSYYWGWIRQPPGKGLEWIGNIYYSGSTYYNPSLKSRVTISVDTSKNQFSLKLSSVTAADTAVYYCARLGHGYSYFDLWGRGTLVTVSS VL: EIVLTQSPATLSLSPGERATLSCRASQSVSSYLAWFQQKPGQAPRLLIYDASNRATGIPARFSGSGSGTDFTLTISSLEPEDFAVYYCQQVYVWPPRTFGGGTKVEIK												27.3	71	2.3	2.3	2.9	2	
5984 (antibody, V domains shown, anti-BACE1 IgG) VH: QLQLQESGPGLVKPSETLSLTCTVSGGSISSSSYYWGWIRQPPGKGLEWIGNIYYSGSTYYNPSLKGRVTISVDTSKNQFSLKLSSVTAADTAVYYCARLGHGYNYFDLWGRGTLVTVSS VL: EIVLTQSPATLSLSPGERATLSCRASQSVSSYLAWFQQKPGQAPRLLIYDASNRATGIPARFSGSGSGTDFTLTISSLEPEDFAVYYCQQVYVWPPRTFGGGTKVEIK												22.6	70	0.34	0.37	0.43	0.36	
5985 (antibody, V domains shown, anti-BACE1 IgG) VH: QLQLQESGPGLVKPSETLSLTCTVSGGSISSSSYYWGWIRQPPGKGLEWIGNIYYSGSTYYNPSLKSRVTISVDTSKNQFSLKLSSVTAADTAVYYCARLGHGYNYFDLWGRGTLVTVSS VL: EIVLTQSPATLSLSPGERATLSCRASQSVSSYLAWFQQKPGQAPRLLIYDASNRATGIPARFSGSGSGTDFTLTISSLEPEDFAVYYCQQVYVWPPRTFGGGTKVEIK													73	0.68	0.81	0.87	0.65	
5986 (antibody, V domains shown, anti-BACE1 IgG) VH: QLQLQESGPGLVKPSETLSLTCTVSGGSISSSSYYWGWIRQPPGKGLEWIGQIYYSGSTFYNPSLKSRVTISVDTSKNQFSLKLSSVTAADTAVYYCARLGHGYSYFDLWGRGTLVTVSS VL: EIVLTQSPATLSLSPGERATLSCRASQSVSSYLAWFQQKPGQAPRLLIYDASNRATGIPARFSGSGSGTDFTLTISSLEPEDFAVYYCQQVYVWPPRTFGGGTKVEIK												5.42	67	< 0.24	< 0.27	0.78	0.54	
5874 (antibody, V domains shown, anti-BACE1 IgG) VH: EVQLLESGGGLVQPGGSLRLSCAASGFTFGSYAMSWVRQAPGKGLEWVSATSGSGGSTYYADSVKGRFTISRDNSKNTLYLQMDSLRAEDTAVYYCAKGGSQWLYAPGSWFDPWGQGTLVTVSS VL: EIVLTQSPATLSLSPGERATLSCRASQSVSSYLAWYQQKPGQAPRLLIYDASNRATGIPARFSGSGSGTDFTLTISSLEPEDFAVYYCVQRSNFPWTFGGGTKVEIK	33	22		200	3.97			37	33	1.3	0.798							
hu7A4.v5 (antibody, V domains shown, IgG) VH: EVQLVQSGAEVKKPGASVKVSCKASGYTFTDYAMHWVRQAPGQGLEWMGGISTYFGRTNYNQKFKGRVTMTRDTSISTAYMELSRLRSDDTAVYYCARGLSGNYVMDYWGQGTTVTVSS VL: DIVMTQSPDSLAVSLGERATINCRASESVDSYGNSFMHWYQQKPGQPPKLLIYRASNLESGIPDRFSGSGSGTDFTLTISSLQAEDVAVYYCQQSNEGPPTFGQGTKLEIK																		0.364
